For one series, the target named is Glu11 (UniProt position 354, IAGFIEGGWTG). The series is described as follows: NMR. As to conditions: DPC micelle-bound helical hairpin.
Another series has as its target Asp19 (UniProt position 362, WTGMIDGWYGY). The series is described as follows: NMR. As to conditions: DPC micelle-bound helical hairpin.

For orientation: pKa means the negative logarithm of the acid dissociation constant. Low readings indicate a stronger acid or weaker base, high ones a weaker acid or stronger base. Turning to “Hemagglutinin HA2 fusion peptide HAfp23 (Influenza A virus (serotype H1; strain not stated))”, the results for the pKa with Glu11 and with Asp19 were 5.31±0.01 and 4.35±0.02, respectively.
